B1: Tissue-type plasminogen activator, P00750 (parent)
chain: MDAMKRGLCCVLLLCGAVFVSPSQEIHARFRRGARSYQVICRDEKTQMIYQQHQSWLRPVLRSNRVEYCWCNSGRAQCHSVPVKSCSEPRCFNGGTCQQALYFSDFVCQCPEGFAGKCCEIDTRATCYEDQGISYRGTWSTAESGAECTNWNSSALAQKPYSGRRPDAIRLGLGNHNYCRNPDRDSKPWCYVFKAGKYSSEFCSTPACSEGNSDCYFGNGSAYRGTHSLTESGASCLPWNSMILIGKVYTAQNPSAQALGLGKHNYCRNPDGDAKPWCHVLKNRRLTWEYCDVPSCSTCGLRQYSQPQFRIKGGLFADIASHPWQAAIFAKHRRSPGERFLCGGILISSCWILSAAHCFQERFPPHHLTVILGRTYRVVPGEEEQKFEVEKYIVHKEFDDDTYDNDIALLQLKSDSSRCAQESSVVRTVCLPPADLQLPDWTECELSGYGKHEALSPFYSERLKEAHVRLYPSSRCTSQHLLNRTVTDNMLCAGDTRSGGPQANLHDACQGDSGGPLVCLNDGRMTLVGIISWGLGCGQKDVPGVYTKVTNYLDWIRDNMRP

Several values for one entry are separate records, joined by “and”; a condition that tells them apart may be missing. Equal entries are not always repeated.

This data set covers variants of B1. To be noted: Homo sapiens; pH 8; Thermal; DSC; Tris - Oac/100mM NaOAc 50 mM; structure 1PML; whole UniProt chain shown.
W288S: the Tm (in general, the temperature at which the thermal transition is half complete) was 73.7 °C and 76.5 °C; the “change of melting temperature, mutant - wild type (higher = more stable)” value (“change of melting temperature, mutant” below) is -3.5 °C.
For the variant W288F, the “change of melting temperature, mutant” value was -1.7 °C.
W288L: the Tm is 71.7 °C and 73.9 °C; the “change of melting temperature, mutant” value is -3.7 °C.
For W288Y, the Tm stood at 81.6 °C.

The values are drawn from FireProtDB (doi:10.1021/bi00128a004).
